Results: paper PMC3820160

Target: HA/Flag-tagged Met66 prodomain (human)
Assay: co-IP

Sequence of HA/Flag-tagged Met66 prodomain (human) (P23560 19-247): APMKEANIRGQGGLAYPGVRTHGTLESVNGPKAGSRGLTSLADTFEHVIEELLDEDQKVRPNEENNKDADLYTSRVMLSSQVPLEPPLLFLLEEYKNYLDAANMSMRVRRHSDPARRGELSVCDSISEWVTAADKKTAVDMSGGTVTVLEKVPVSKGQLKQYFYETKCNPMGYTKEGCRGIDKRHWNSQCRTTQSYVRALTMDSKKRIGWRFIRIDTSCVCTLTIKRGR

For “Myc-tagged SorCS2 (from UniProt Q96PQ0 51-1159) (receptor)”, which percent more co-immunoprecipitated than with the Val66 prodomain is on record?
The percent more co-immunoprecipitated than with the Val66 prodomain was 23%.
